36 molecules from publication PMC10786891, “Massively parallel profiling of RNA-targeting CRISPR-Cas13d” can be followed below.

One may read the Kd as the constant that tells how readily two partners part at equilibrium. High values mean weaker binding, low ones tighter binding.

T1: EsCas13d, nuclease-dead (Eubacterium siraeum, UniProt B0MS50, R295A;H300A;R849A;H854A)
T1 sequence: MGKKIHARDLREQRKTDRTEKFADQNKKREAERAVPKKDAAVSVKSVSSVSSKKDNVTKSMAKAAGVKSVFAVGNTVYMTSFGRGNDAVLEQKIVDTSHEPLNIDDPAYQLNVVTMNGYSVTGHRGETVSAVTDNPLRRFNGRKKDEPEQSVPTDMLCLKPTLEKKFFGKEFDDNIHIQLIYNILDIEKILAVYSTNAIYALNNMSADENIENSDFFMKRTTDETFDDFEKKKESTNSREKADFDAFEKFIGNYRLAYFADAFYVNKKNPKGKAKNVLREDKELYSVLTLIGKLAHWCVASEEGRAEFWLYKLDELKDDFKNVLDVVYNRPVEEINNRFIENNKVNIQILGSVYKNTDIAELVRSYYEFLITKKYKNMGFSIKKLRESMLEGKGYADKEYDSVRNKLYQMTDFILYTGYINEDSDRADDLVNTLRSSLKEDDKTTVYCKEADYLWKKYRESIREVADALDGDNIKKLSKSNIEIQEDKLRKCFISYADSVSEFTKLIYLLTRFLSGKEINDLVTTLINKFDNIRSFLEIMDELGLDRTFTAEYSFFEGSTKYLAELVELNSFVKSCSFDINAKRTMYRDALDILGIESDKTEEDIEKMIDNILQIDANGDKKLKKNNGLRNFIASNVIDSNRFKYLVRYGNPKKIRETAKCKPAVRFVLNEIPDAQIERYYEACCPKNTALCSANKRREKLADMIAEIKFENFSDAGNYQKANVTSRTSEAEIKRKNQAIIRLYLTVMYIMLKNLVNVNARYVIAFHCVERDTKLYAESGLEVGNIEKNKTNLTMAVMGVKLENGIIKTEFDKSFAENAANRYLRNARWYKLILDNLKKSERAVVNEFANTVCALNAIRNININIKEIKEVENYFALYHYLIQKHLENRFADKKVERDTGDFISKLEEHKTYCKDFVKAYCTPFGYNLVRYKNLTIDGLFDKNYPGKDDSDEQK

B1: target 1 insG 3' of 14,insG 3' of 9 (mixed)
RNA 1: CACCCGUGCAAAAAUGCAGGGGUCUAAAACUGAGCGGAUAACCUCUCUAUGG
RNA 2: GGGAAUGGAUCCACAUCUACGAAUUCGUACCAUAGAGAGGGUUAGUCCGCUCACCGAGAUCGGAAGAGCACACGU
B2: target 1 G13A,U19C (mixed)
RNA 1: B1 RNA 1
RNA 2: GGGAAUGGAUCCACAUCUACGAAUUCGUACCACAGAGAAGUUAUCCGCUCACCGAGAUCGGAAGAGCACACGU
B3: target 1 insC 3' of 15,insC 3' of 3 (mixed)
RNA 1: B1 RNA 1
RNA 2: B1 RNA 2 with A38C, G39A, G45U, U46C, C48G, G49C, C50U, U51C
B4: target 2 MT 5'PFS AGA 3'PFS AGA (mixed)
RNA 1: CACCCGUGCAAAAUUGCAGGGGUCUAAAACCUUCUCCAAAUUGUUUCAUCCU
RNA 2: GGGAAUGGAUCCACAUCUACGAAUUCAGAAGGAUGAAACAAUUUGGAGAAGAGAAGAUCGGAAGAGCACACGU
B5: target 2 MT 5'PFS GGA 3'PFS CGC (mixed)
RNA 1: B4 RNA 1
RNA 2: B4 RNA 2 with A27G, A52C, A54C
B6: target 2 MT 5'PFS UUA 3'PFS CGA (mixed)
RNA 1: B4 RNA 1
RNA 2: B4 RNA 2 with A27U, G28U, A52C
B7: target 2 MT 5'PFS AGU 3'PFS ACG (mixed)
RNA 1: B4 RNA 1
RNA 2: B4 RNA 2 with A29U, G53C, A54G
B8: target 2 MT 5'PFS GGA 3'PFS UGU (mixed)
RNA 1: B4 RNA 1
RNA 2: B4 RNA 2 with A27G, A52U, A54U
B9: target 2 MT 5'PFS UUA 3'PFS AGA (mixed)
RNA 1: B4 RNA 1
RNA 2: B4 RNA 2 with A27U, G28U
B10: target 2 MT 5'PFS AGU 3'PFS ACU (mixed)
RNA 1: B4 RNA 1
RNA 2: B4 RNA 2 with A29U, G53C, A54U
B11: target 2 MT 5'PFS UCU 3'PFS UAC (mixed)
RNA 1: B4 RNA 1
RNA 2: B4 RNA 2 with A27U, G28C, A29U, A52U, G53A, A54C
B12: target 2 MT 5'PFS GUG 3'PFS ACA (mixed)
RNA 1: B4 RNA 1
RNA 2: B4 RNA 2 with A27G, G28U, A29G, G53C
B13: target 2 MT 5'PFS CGG 3'PFS CUC (mixed)
RNA 1: B4 RNA 1
RNA 2: B4 RNA 2 with A27C, A29G, A52C, G53U, A54C
B14: target 2 MT 5'PFS ACC 3'PFS UAG (mixed)
RNA 1: B4 RNA 1
RNA 2: B4 RNA 2 with G28C, A29C, A52U, G53A, A54G
B15: target 2 MT 5'PFS CGG 3'PFS CUU (mixed)
RNA 1: B4 RNA 1
RNA 2: B4 RNA 2 with A27C, A29G, A52C, G53U, A54U
B16: target 2 MT 5'PFS GUG 3'PFS ACG (mixed)
RNA 1: B4 RNA 1
RNA 2: B4 RNA 2 with A27G, G28U, A29G, G53C, A54G
B17: target 2 MT 5'PFS ACC 3'PFS UAC (mixed)
RNA 1: B4 RNA 1
RNA 2: B4 RNA 2 with G28C, A29C, A52U, G53A, A54C
B18: target 2 MT 5'PFS GCU 3'PFS AGC (mixed)
RNA 1: B4 RNA 1
RNA 2: B4 RNA 2 with A27G, G28C, A29U, A54C
B19: target 2 MT 5'PFS UUA 3'PFS CGG (mixed)
RNA 1: B4 RNA 1
RNA 2: B4 RNA 2 with A27U, G28U, A52C, A54G
B20: target 2 MT 5'PFS UCU 3'PFS UAA (mixed)
RNA 1: B4 RNA 1
RNA 2: B4 RNA 2 with A27U, G28C, A29U, A52U, G53A
B21: target 2 MT 5'PFS GGA 3'PFS UGA (mixed)
RNA 1: B4 RNA 1
RNA 2: B4 RNA 2 with A27G, A52U
B22: target 2 MT 5'PFS AAG 3'PFS UAC (mixed)
RNA 1: B4 RNA 1
RNA 2: B4 RNA 2 with G28A, A29G, A52U, G53A, A54C
B23: target 2 MT 5'PFS UUA 3'PFS AGC (mixed)
RNA 1: B4 RNA 1
RNA 2: B4 RNA 2 with A27U, G28U, A54C
B24: target 2 MT 5'PFS ACC 3'PFS UAU (mixed)
RNA 1: B4 RNA 1
RNA 2: B4 RNA 2 with G28C, A29C, A52U, G53A, A54U
B25: target 2 MT 5'PFS UUA 3'PFS CGC (mixed)
RNA 1: B4 RNA 1
RNA 2: B4 RNA 2 with A27U, G28U, A52C, A54C
B26: target 2 MT 5'PFS ACG 3'PFS UCC (mixed)
RNA 1: B4 RNA 1
RNA 2: B4 RNA 2 with G28C, A29G, A52U, G53C, A54C
B27: target 2 MT 5'PFS GUG 3'PFS ACC (mixed)
RNA 1: B4 RNA 1
RNA 2: B4 RNA 2 with A27G, G28U, A29G, G53C, A54C
B28: target 2 MT 5'PFS UAG 3'PFS UAU (mixed)
RNA 1: B4 RNA 1
RNA 2: B4 RNA 2 with A27U, G28A, A29G, A52U, G53A, A54U
B29: target 2 MT 5'PFS GGA 3'PFS CGA (mixed)
RNA 1: B4 RNA 1
RNA 2: B4 RNA 2 with A27G, A52C
B30: target 2 MT 5'PFS UAG 3'PFS UAA (mixed)
RNA 1: B4 RNA 1
RNA 2: B4 RNA 2 with A27U, G28A, A29G, A52U, G53A
B31: target 2 MT 5'PFS GUG 3'PFS ACU (mixed)
RNA 1: B4 RNA 1
RNA 2: B4 RNA 2 with A27G, G28U, A29G, G53C, A54U
B32: target 2 MT 5'PFS UUA 3'PFS AGG (mixed)
RNA 1: B4 RNA 1
RNA 2: B4 RNA 2 with A27U, G28U, A54G
B33: target 2 MT 5'PFS ACG 3'PFS UCU (mixed)
RNA 1: B4 RNA 1
RNA 2: B4 RNA 2 with G28C, A29G, A52U, G53C, A54U
B34: target 2 MT 5'PFS GAA 3'PFS UCA (mixed)
RNA 1: B4 RNA 1
RNA 2: B4 RNA 2 with A27G, G28A, A52U, G53C
B35: target 2 MT 5'PFS GGA 3'PFS CGG (mixed)
RNA 1: B4 RNA 1
RNA 2: B4 RNA 2 with A27G, A52C, A54G
B36: target 2 MT 5'PFS CGG 3'PFS CUA (mixed)
RNA 1: B4 RNA 1
RNA 2: B4 RNA 2 with A27C, A29G, A52C, G53U

Numbering of substitutions follows the chain as printed. Numbers in names are those of the source.

This data set addresses T1, EsCas13d, nuclease-dead. As to the kind of experiment: crRNA (strand 1, pre-loaded); Mg2+; 40 mM Tris-HCl pH 7.5, 150 mM NaCl, 6 mM MgCl2, 1 mM DTT, 0.1% Tween-20, 0.2 mg/ml BSA; 25 C; 10 min per concentration, then washed. Particulars: tags: His6-TwinStrep-SUMO cleaved; N-terminal SNAP kept (SNAP-Surface 488); label: 3' end held by stalled T7 RNA polymerase.
For B1, the Kd amounted to 21.5 ± 1.5 nM.
To B2 belongs 30 ± 6 nM.
To B3 belongs 17.3 ± 0.9 nM; to B4, 4.9 ± 0.7 nM; to B5, 10.5 ± 1.2 nM.
For B6, the affinity, expressed as Kd, was 24 ± 4 nM.
In the case of B7, the dissociation constant (Kd) came out at 13.8 ± 1.7 nM.
The figure for B8 is 16.4 ± 1.6 nM; for B9 it is 19.4 ± 3.2 nM.
The figure for B10 is 22 ± 7 nM.
As for B11, the Kd is 12.8 ± 2.5 nM.
Consider B12, for which the Kd worked out at 10.3 ± 0.9 nM.
B13 gave a Kd of 7.2 ± 0.9 nM.
B14 returned a Kd of 4.6 ± 0.8 nM.
In the case of B15, the Kd was 6.6 ± 0.9 nM.
Turning to B16, the Kd stood at 13.1 ± 0.8 nM.
For B17, binding was put at a Kd of 12 ± 5 nM.
To B18 belongs 7.8 ± 1.4 nM; to B19, 20.9 ± 2.1 nM.
In the case of B20, binding was put at a Kd of 12.8 ± 3.2 nM.
The molecule B21 yielded a Kd of 15.6 ± 3.1 nM.
To B22 belongs 4.4 ± 0.5 nM.
The figure for B23 is 19.3 ± 2.2 nM; for B24 it is 6.5 ± 1.4 nM.
The figure for B25 is 48 ± 10 nM; for B26 it is 34 ± 15 nM.
Molecule B27 returned a Kd of 20.8 ± 2.1 nM.
The figure for B28 is 2.94 ± 0.19 nM.
To B29 belongs 9.1 ± 0.9 nM.
Take B30: the affinity, expressed as Kd, was 2.8 ± 0.4 nM.
Turning to B31, the affinity, expressed as Kd, was 12.9 ± 0.7 nM.
Turning to B32, the Kd is 23.1 ± 3 nM.
B33: binding was put at a Kd of 23 ± 7 nM.
The figure for B34 is 12.7 ± 3.2 nM; for B35 it is 9.8 ± 0.8 nM; for B36 it is 6.1 ± 0.8 nM.
